{
  "source": "patent US20110088129A1",
  "key": {"[1]": {"biological_target": "binding sites in brush border membrane vesicles (BBMV) from midguts of last instar Helicoverpa zea larvae (Helicoverpa zea)", "test": "homologous competition on H. zea BBMV"}, "[2]": {"biological_target": "binding sites in brush border membrane vesicles (BBMV) from midguts of last instar Helicoverpa zea larvae (Helicoverpa zea)", "test": "homologous competition, 125I-Cry2Ab on H. zea BBMV, LIGAND program"}, "[3]": {"biological_target": "binding sites in brush border membrane vesicles (BBMV) from midguts of last instar Helicoverpa armigera larvae (Helicoverpa armigera)", "test": "homologous competition on H. armigera BBMV"}, "[4]": {"biological_target": "binding sites in brush border membrane vesicles (BBMV) from midguts of last instar Helicoverpa armigera larvae (Helicoverpa armigera)", "test": "homologous competition, 125I-Cry2Ab on H. armigera BBMV, LIGAND program"}, "[5]": {"biological_target": "binding sites in brush border membrane vesicles (BBMV) from midguts of last instar Helicoverpa armigera larvae (Helicoverpa armigera)", "test": "direct saturation assay, increasing 125I-Cry2Ab on fixed H. armigera BBMV (0.2 mg/ml)"}},
  "data": [
    {"binder": "Cry2Ab toxin (trypsin-activated Cry2Ab2 from recombinant B. thuringiensis strain BtIPS78/11) (ligand, 125I label (chloramine T method) where used as the labelled ligand) NAVPLSITSSVNTMQQLFLNRLPQFQMQGYQLLLLPLFAQAANLHLSFIRDVILNADEWGISAATLRTYRDYLKNYTRDYSNYCINTYQSAFKGLNTRLHDMLEFRTYMFLNVFEYVSIWSLFKYQSLLVSSGANLYASGSGPQQTQSFTSQDWPFLYSLFQVNSNYVLNGFSGARLSNTFPNIVGLPGSTTTHALLAARVNYSGGISSGDIGASPFNQNFNCSTFLPPLLTPFVRSWLDSGSDREGVATVTNWQTESFETTLGLRSGAFTARGNSNYFPDYFIRNISGVPLVVRNEDLRRPLHYNEIRNIASPSGTPGGARAYMVSVHNRKNNIHAVHENGSMIHLAPNDYTGFTISPIHATQVNNQTRTFISEKFGNQGDSLRFEQNNTTARYTLRGNGNSYNLYLRVSSIGNSTIRVTINGRVYTATNVNTTTNNDGVNDNGARFSDINIGNVVASSNSDVPLDINVTLNSGTQFDLMNIMLVPTNISPLY", "values": [
      {"measurement": "fold difference in concentration of binding sites between Cry2Ab and Cry1Ac", "setting": "[1]", "result": 3, "unit": "fold"},
      {"measurement": "fold higher Kd than Cry1Ac", "setting": "[1]", "result": 35, "unit": "fold"},
      {"measurement": "Kd", "setting": "[2]", "result": 5.9, "unit": "nM"},
      {"measurement": "Rt (binding site concentration) (pmol/mg BBMV protein)", "setting": "[2]", "result": 2.7},
      {"measurement": "fold difference in concentration of binding sites between Cry2Ab and Cry1Ac", "setting": "[3]", "result": 3, "unit": "fold"},
      {"measurement": "fold higher Kd than Cry1Ac", "setting": "[3]", "result": 35, "unit": "fold"},
      {"measurement": "Kd", "setting": "[4]", "result": 3.1, "unit": "nM"},
      {"measurement": "Rt (binding site concentration) (pmol/mg BBMV protein)", "setting": "[4]", "result": 2.5},
      {"measurement": "concentration at which binding reached a maximum", "setting": "[5]", "result": 20, "unit": "nM"},
      {"measurement": "concentration at which the saturation curve deviated from linearity", "setting": "[5]", "result": 5, "unit": "nM"}
    ]}
  ]
}
